The target of the assay is m33 T cell receptor (high-affinity CDR3α mutant of 2C, displayed on 58−/− T cell hybridoma cells) (mouse). Put plainly: flow cytometry on cells. (In general: Flow cytometry measures light scatter and fluorescence of single cells or particles in a stream.)

For “SIYRYYGL/K^b tetramer (biotinylated SIY/K^b monomers on streptavidin:phycoerythrin) (from UniProt P01887 21-119) (peptide-MHC)”, the percent of cells positive for tetramer amounted to 84%.
